Publication PMC7954794, “Protein context shapes the specificity of SH3 domain-mediated interactions in vivo” (Nature Communications, 2021)

B1: YLR196W_1 (protein, UniProt P21304 1-576, looked up)
Periodic tryptophan protein 1: MISATNWVPRGFSSEFPEKYVLDDEEVERINQLAQLNLDDAKATLEEAEGESGVEDDAATGSSNKLKDQLDIDDDLKEYNLEEYDDEEIADNEGGKDVSMFPGLSNDSDVKFHEGEKGEDPYISLPNQEDSQEEKQELQVYPSDNLVLAARTEDDVSYLDIYVYDDGAGFHSSDIPVEEGDEADPDVARGLVRDPALYVHHDLMLPAFPLCVEWLDYKVGSNSEEAANYAAIGTFDPQIEIWNLDCVDKAFPDMILGEPLDNSMVSLKSKKKKKKSKTGHITTHHTDAVLSMAHNKYFRSVLASTSADHTVKLWDLNSGNAARSLASIHSNKNVSSSEWHMLNGSILLTGGYDSRVALTDVRISDESQMSKYWSAMAGEEIETVTFASENIILCGTDSGNVYSFDIRNNENRKPVWTLKAHDAGISTLCSNKFIPGMMSTGAMGEKTVKLWKFPLDDATNTKGPSMVLSRDFDVGNVLTSSFAPDIEVAGTMVIGGVNKVLKLWDVFTNRSVRKSFKSELENVQARAKEEAQKIGKSSRIARKYTSNDNPDTVITIDDQGEDEEEREGGDEHDDMA
B2: YLR337C_1 (protein, UniProt P37370 1-817, looked up)
Verprolin: MAGAPAPPPPPPPPALGGSAPKPAKSVMQGRDALLGDIRKGMKLKKAETNDRSAPIVGGGVVSSASGSSGTVSSKGPSMSAPPIPGMGAPQLGDILAGGIPKLKHINNNASTKPSPSASAPPIPGAVPSVAAPPIPNAPLSPAPAVPSIPSSSAPPIPDIPSSAAPPIPIVPSSPAPPLPLSGASAPKVPQNRPHMPSVRPAHRSHQRKSSNISLPSVSAPPLPSASLPTHVSNPPQAPPPPPTPTIGLDSKNIKPTDNAVSPPSSEVPAGGLPFLAEINARRSERGAVEGVSSTKIQTENHKSPSQPPLPSSAPPIPTSHAPPLPPTAPPPPSLPNVTSAPKKATSAPAPPPPPLPAAMSSASTNSVKATPVPPTLAPPLPNTTSVPPNKASSMPAPPPPPPPPPGAFSTSSALSASSIPLAPLPPPPPPSVATSVPSAPPPPPTLTTNKPSASSKQSKISSSSSSSAVTPGGPLPFLAEIQKKRDDRFVVGGDTGYTTQDKQEDVIGSSKDDNVRPSPISPSINPPKQSSQNGMSFLDEIESKLHKQTSSNAFNAPPPHTDAMAPPLPPSAPPPPITSLPTPTASGDDHTNDKSETVLGMKKAKAPALPGHVPPPPVPPVLSDDSKNNVPAASLLHDVLPSSNLEKPPSPPVAAAPPLPTFSAPSLPQQSVSTSIPSPPPVAPTLSVRTETESISKNPTKSPPPPPSPSTMDTGTSNSPSKNLKQRLFSTGGSTLQHKHNTHTNQPDVDVGRYTIGGSNSIVGAKSGNERIVIDDSRFKWTNVSQMPKPRPFQNKTKLYPSGKGSSVPLDLTLFT
B3: YML016C_1 (protein, UniProt P26570 2-692, looked up)
Serine/threonine-protein …: GNSSSKSSKKDSHSNSSSRNPRPQVSRTETSHSVKSAKSNKSSRSRRSLPSSSTTNTNSNVPDPSTPSKPNLEVNHQRHSSHTNRYHFPSSSHSHSNSQNELLTTPSSSSTKRPSTSRRSSYNTKAAADLPPSMIQMEPKSPILKTNNSSTHVSKHKSSYSSTYYENALTDDDNDDKDNDISHTKRFSRSSNSRPSSIRSGSVSRRKSDVTHEEPNNGSYSSNNQENYLVQALTRSNSHASSLHSRKSSFGSDGNTAYSTPLNSPGLSKLTDHSGEYFTSNSTSSLNHHSSRDIYPSKHISNDDDIENSSQLSNIHASMENVNDKNNNITDSKKDPNEEFNDIMQSSGNKNAPKKFKKPIDIDETIQKLLDAGYAAKRTKNVCLKNNEILQICIKAREIFLSQPSLLELSPPVKIVGDVHGQYGDLLRLFTKCGFPPSSNYLFLGDYVDRGKQSLETILLLFCYKIKYPENFFLLRGNHECANVTRVYGFYDECKRRCNIKIWKTFIDTFNTLPLAAIVAGKIFCVHGGLSPVLNSMDEIRHVVRPTDVPDFGLINDLLWSDPTDSPNEWEDNERGVSYCYNKVAINKFLNKFGFDLVCRAHMVVEDGYEFFNDRSLVTVFSAPNYCGEFDNWGAVMSVSEGLLCSFELLDPLDSAALKQVMKKGRQERKLANQQQQMMETSITNDNESQQ
B4: YNL243W_1 (protein, UniProt P33338 1-968, looked up)
Protein SLA2: MSRIDSDLQKALKKACSVEETAPKRKHVRACIVYTWDHQSSKAVFTTLKTLPLANDEVQLFKMLIVLHKIIQEGHPSALAEAIRDRDWIRSLGRVHSGGSSYSKLIREYVRYLVLKLDFHAHHRGFNNGTFEYEEYVSLVSVSDPDEGYETILDLMSLQDSLDEFSQIIFASIQSERRNTECKISALIPLIAESYGIYKFITSMLRAMHRQLNDAEGDAALQPLKERYELQHARLFEFYADCSSVKYLTTLVTIPKLPVDAPDVFLINDVDESKEIKFKKREPSVTPARTPARTPTPTPPVVAEPAISPRPVSQRTTSTPTGYLQTMPTGATTGMMIPTATGAANAIFPQATAQMQPDFWANQQAQFANEQNRLEQERVQQLQQQQAQQELFQQQLQKAQQDMMNMQLQQQNQHQNDLIALTNQYEKDQALLQQYDQRVQQLESEITTMDSTASKQLANKDEQLTALQDQLDVWERKYESLAKLYSQLRQEHLNLLPRFKKLQLKVNSAQESIQKKEQLEHKLKQKDLQMAELVKDRDRARLELERSINNAEADSAAATAAAETMTQDKMNPILDAILESGINTIQESVYNLDSPLSWSGPLTPPTFLLSLLESTSENATEFATSFNNLIVDGLAHGDQTEVIHCVSDFSTSMATLVTNSKAYAVTTLPQEQSDQILTLVKRCAREAQYFFEDLMSENLNQVGDEEKTDIVINANVDMQEKLQELSLAIEPLLNIQSVKSNKETNPHSELVATADKIVKSSEHLRVDVPKPLLSLALMIIDAVVALVKAAIQCQNEIATTTSIPLNQFYLKNSRWTEGLISAAKAVAGATNVLITTASKLITSEDNENTSPEQFIVASKEVAASTIQLVAASRVKTSIHSKAQDKLEHCSKDVTDACRSLGNHVMGMIEDDHSTSQQQQPLDFTSEHTLKTAEMEQQVEILKLEQSLSNARKRLGEIRRHAYYNQDDD
B5: YOR042W_1 (protein, UniProt Q08412 1-411, looked up)
Ubiquitin-binding protein CUE5: MEEKEGIKDSSLLEKSNVPESINEDISKTTDVDLNSDGKKDNDTSAKDGTPKVEEKVNKSSGIDEDEVVTPAEDAKEEEEEHPPLPARRKSEEEPSKENPILQELKDAFPNLEEKYIKAVIIASQGVLSPAFNALLFLSDPESGKDIELPTQPVRKNPEAPARRRQTQLEQDELLARQLDEQFNSSHSRRRNRDRATRSMHEQRRRRHNPNEREQHHEDSEEEDSWSQFVEKDLPELTDRAGRSLQDTANKVSNWISDAYRRNFASGNEQNDNQHGHQDQQEWEPEIVDLSQGGKNSRPQQPERRRFNSFGVQVGDDSLESHGITLHNEDGFEDDEDVPPQLPTRTKSGESTGKVVAETTYIDTPDTETKKKWQPLPPEPLDTTPTKVNAVSRNKKNPDEDEFLINSDDEM

Test system: PPIs identified as affected by the SH3 domain deletions
Assay: Liquid DHFR-PCA low-throughput validation of PPIs affected by SH3 deletion (Fig. S1D-E)
Assay type: cell-based, Saccharomyces cerevisiae
Settings: label = prey, liquid DHFR-PCA, prey _1 = lost, _2 = gained in screen
Method in brief: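 Yeast diploids from DHFR-PCA mating grown 48 h in synthetic complete MSG medium pH 6.0 with NAT and HPH, normalized to 1 OD and diluted to 0.1 OD in liquid PCA selection medium. Growth followed by OD every 15 min for 72 h at 30 °C.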

Row | Molecule | Ratio (Deletedscore / WTscore) (bait BBC1) | Ratio (Deletedscore / WTscore) (bait LSB1) | Ratio (Deletedscore / WTscore) (bait LSB3) | Ratio (Deletedscore / WTscore) (bait MYO3) | Ratio (Deletedscore / WTscore) (bait PIN3) | Ratio (Deletedscore / WTscore) (bait BEM1-2) | Ratio (Deletedscore / WTscore) (bait BEM1-1) | Ratio (Deletedscore / WTscore) (bait BZZ1-1) | Ratio (Deletedscore / WTscore) (bait HOF1) | Ratio (Deletedscore / WTscore) (bait MYO5)
1 | B1 | 1.08 |  |  |  |  |  |  |  |  | 
2 | B2 | 0.3637 | 0.5725 | 0.8547 | 0.5955 | 0.5606 |  |  |  |  | 
3 | B3 | 0.8012 |  |  | 0.8355 |  | 0.6049 |  |  |  | 
4 | B4 | 0.664 |  |  | 0.5927 | 1.05 | 0.8469 | 1.137 | 0.856 | 0.8741 | 0.7315
5 | B5 | 0.4675 |  |  |  | 0.5809 |  |  |  |  | 
